Experimental data reported in US20210032351A1 (XDCEXPLORER SHANGHAI, published 2021).

B1: Murine anti-56F10 (antibody, V domains shown)
VH: EVQLQQSGAELVKPGASVKLSCTASGFNIKDFYMHWVKQRTEQGLEWIGRIDPEDGETKYAPKFQGKATITADTSSNTAYLQLSSLTSEDTAVYYCGCRTGGFAYWGQGTLVTVSA
VL: QIVLTQSPAIMSASPGEKVTMTCSASSSVSYLYWYQQKPGSSPSLLIYDTSNLASGVPVRFSGSGSGTSYSLTISRMEAEDAATYYCQQWSRNPWTFGGGTKLEIK
notes: murine hybridoma antibody; also called 56F10G2
B2: Murine anti-59G3 (antibody, V domains shown)
VH: DVQLQESGPGLVKPSQSLSLTCSVTGYSITSGYYWHWIRQFPENKLEWMGYISYDGSNIYNPSLKNRISITRDTSKNQFFLKLNSVTTEDTATYYCAINSDYALDYWGQGTSVTVSS
VL: QIVLTQSPAIMSASPGEKVTMTCSASSSVSYMYWYQQKPGSSPRLLIYDTSNLASGVPVRFSGSGSGTSYSLTISRMEAEDAATYYCQQWSSYSLTFGAGTKLELK
notes: murine hybridoma antibody; also called 59G3F12
B3: Murine anti-49G12 (antibody, V domains shown)
VH: EVQLLQSGAELVKPGASVKLSCTASGFNIKDYYMHWVKQRTEQGLEWIGRIDPEDGETKYAPKFQGKATMTADTSSNTAYLQLSSLTSEDTAVYYCASSAYYGRNYWGQGTTLTVSS
VL: QIVLTQSPAIMSASPGEKVTLTCSASSSLSSSYLYWYQQKPGSSPKLWIYSTSNLASGVPARFSGSGSGTSYSLTISSMEAEDAASYFCHQWSSYPYTFGGGTKLEIK
notes: murine hybridoma antibody; also called 49G12G5
B4: Murine anti-51G7 (antibody, V domains shown)
VH: EVQLQQSGAELVKPGASVKLSCTASGFNIKDFYIHWVKQRTEQGLEWIGRIDPEDGETKYAPKFQDKATIIADTSSNTAYLQLSSLTSEDTAVYYCASSSYYGNNYWGQGTTLTVSS
VL: QIVLTQSPAIMSASPGEKVTLTCSASSSVSSNYLYWYQQKPGSSPKLWIYSTSNLASGVPARFSGSGSGTSYSLTISSMEAEDAASYFCHQWSSFPYTFGGGTKLEIK
notes: murine hybridoma antibody; also called 51G7C2
B5: Murine anti-46C4 (antibody, V domains shown)
VH: EVHLQQSVAELVRPGASVKLSCTASGFNIKNTYMHWVKQRPEQGLEWIGRIDPANGNTKYAPKFQGKATITADTSSNTAYLQLSSLTSEDTAIYYCASDFDYWGQGTTLTVSS
VL: DVLMTQTPLSLPVSLGDQVSISCRSSQSIVNSNGNTHLEWYLQKPGQSPKVLIYKVSKRFSGVPDRFSGSGSGTDFTLKISRVEAEDLGVYYCFQGSHVPYTFGGGTKLEIK
notes: murine hybridoma antibody; also called 46C4A6
B6: Murine anti-53D8 (antibody, V domains shown)
VH: QVQLQQSGAELARPGASVKMSCKASGYTFTSYTMHWVKQRPGQGLEWIGYINPSSGYTKYNQIFKDKATLTADKSSSTAYMQLSSLTSEDSAVYYCTRGGGRGFAYWGQGTLVTVSA
VL: DILMTQSPSSMSVSLGDTVSITCHASQDINSNIGWLQQKPGKSFKGLIYHGTNLEDGVPSRFSGSGSGADYSLTISSLESEDFADYYCVQYAQFPFTFGSGTKLEIK
notes: murine hybridoma antibody; also called 53D8H4
B7: Murine anti-64B11 (antibody, V domains shown)
VH: EVQLQQSGAELVKPGASVKLSCTASGFNIKDYYMHWVKQRTEQGLEWIGRIDPEDGETKYAPKFQGKATITADTSSNTAYLQLSNLPSEDTAVYYCGCRTGGFAYWGQGTLVTVSA
VL: DILMTQSPSSMSVSLGDTVSITCHASQGINSNIGWLQQKPGKSFKALIYHGTNLEDGVPSRFSGSGSGADYSLTISSLESEDFADYYCVQYAQFPFTFGSGTELEIK
notes: murine hybridoma antibody; also called 64B11F2

Key:
[1] = biological target: T1, human EGFRvIII-hFc protein (human, UniProt P00533 25-645); test: ELISA, coated EGFRvIII-hFc, antibody 100 nM
T1 construct: extracellular domain; made in HEK293 cells, purified on protein A; also called immunogen A; hFc-tagged EGFRvIII protein; not shown: human IgG Fc fragment (hFc) of the pCpC vector
Procedure: (§1) The purified immunogen A (EGFRvIII-hFc) obtained in example 1 (for the preparation method, see step (I) in example 1) is diluted with PBS to a final concentration of 1.0 μg/mL, and then added to a 96-well ELISA plate at 100 μl/well. The plate is sealed with a plastic film and incubated at 4° C. overnight. The next day, the plate is washed twice with a plate washing solution [PBS+0.01% (v/v) Tween20], and added with a blocking solution [PBS+0.01% (v/v) Tween20+1% (w/w) BSA] for blocking 2 hours at room temperature. The blocking solution is discarded, and the purified EGFRvIII antibody obtained in example 2 is added at 100 μl/well. The plate is incubated for 2 hours at 37° C., and then washed 3 times with the plate washing solution [PBS+0.01% (v/v) Tween20]. The plate is added with an HRP (horseradish peroxidase) labeled secondary antibody (purchased from Sigma), incubated at 37° C. for 2 hours, and then washed 3 times with the plate washing solution [PBS+0.01% (v/v) Tween20]. The plate is added with 100 μl of TMB substrate/well, incubated for 30 minutes at room temperature, and then added with 100 μl of stopping solution (1.0N HCl)/well. A450 nm value is read using an ELISA plate reader (SpectraMax 384plus, purchased from Molecular Device), and the results are shown in FIG. 6 and table 10.

[2] = biological target: T1, human EGFRvIII-hFc protein; test: ELISA, coated EGFRvIII-hFc, antibody 0.001 nM
Procedure: as §1

[3] = biological target: T2, human EGFR protein (wild-type), on cells (human, UniProt P00533 25-1210); test: FACS on U87MG and HEB cells
T2 construct: whole, on cells; transfected on CHO-K1 cells; endogenous on the human cell lines; the cell is named under assay; also called wild-type EGFR; hEGFR
Procedure: The collected cells are suspended to 2×10⁶ cells/mL with an FACS buffer (HBSS+1% BSA, with the percentage being the mass percentage), added to a 96-well FACS reaction plate at 100 μL/well, then added with 100 μL/well of the purified EGFRvIII antibody (samples to be tested) obtained in example 2, and incubated on ice for 2 hours. The plate is centrifugally washed twice with the FACS buffer, added with 100 μL/well of a fluorescence (Alexa 488) labeled secondary antibody (purchased from Invitrogen), and then incubated on ice for 1 hour. The plate is centrifugally washed 3 times with the FACS buffer, added with 100 μL/well of a fixing solution [4% (v/v) paraformaldehyde] for suspending the cells, and centrifugally washed twice with the FACS buffer after 10 minutes. The cells are suspended in 100 μL of the FACS buffer, and the results are detected and analyzed by FACS (FACS Calibur, purchased from BD). Data analysis is performed by using the software (CellQuest) to obtain the mean fluorescence intensity (MFI) of the cells. Data is further analyzed by using the software (GraphPad Prism5) to perform data fitting and calculate EC50. […] A431 cells (human epidermal cell cancer cell lines) have a large amount of wild-type EGFR protein expressed on the surface thereof. […] U87MG cells (human glioma cell lines) have a small amount of wild-type EGFR protein expressed on the surface thereof, while HEB cells (human glioma cell lines) have a high level of wild-type EGFR protein expression on the surface thereof.

[4] = biological target: T1, human EGFRvIII-hFc protein; test: ELISA, coated EGFRvIII-hFc, antibody 1 nM
Procedure: as §1

[5] = biological target: T1, human EGFRvIII-hFc protein; test: ELISA, coated EGFRvIII-hFc, antibody 10 nM
Procedure: as §1

[6] = biological target: T1, human EGFRvIII-hFc protein; test: ELISA, coated EGFRvIII-hFc, antibody 0.1 nM
Procedure: as §1

[7] = biological target: T1, human EGFRvIII-hFc protein; test: ELISA, coated EGFRvIII-hFc, antibody 0.0001 nM
Procedure: as §1

[8] = biological target: T1, human EGFRvIII-hFc protein; test: ELISA, coated EGFRvIII-hFc, antibody 0.01 nM
Procedure: as §1

Binder	OD450 nm [1]	OD450 nm [2]	binding result [3]	OD450 nm [4]	OD450 nm [5]	OD450 nm [6]	OD450 nm [7]	OD450 nm [8]
B1	3.61	0.1	no binding	0.98	3.53	0.18	0.09	0.11
B2	3.71	0.08	no binding	2.68	3.67	0.49	0.08	0.13
B3	3.79	0.13	no binding	3.2	3.8	0.64	0.08	0.14
B4	3.68	0.09	no binding	2.44	3.69	0.46	0.08	0.15
B5	3.83	0.09	no binding	3.5	3.85	0.72	0.08	0.15
B6	3.72	0.1	no binding	3.2	3.69	0.64	0.09	0.16
B7	3.64	0.08	no binding	1.58	3.63	0.24	0.08	0.09
